Experimental findings from patent publication US20250179215A1, “PLASMIN-BINDING VHHS” (RHEINISCHE FRIEDRICH-WILHELMS-UNIVERSITÄT BONN, priority 2022, published 2025) are described below.

The experiment has as its target T1, plasmin (Homo sapiens, UniProt P00747).
T1 construct: human Lys-plasmin which is prepared from homogeneous Glu-plasminogen using uPA; purchased Haematologic Technologies, Inc. (Essex Junction, VT)
The experiment is described as follows: Plasmin inhibition assay (α2-AP-mediated plasmin inactivation). The class given is biochemical. Conditions: α2AP alone, molar excess of α2AP over plasmin. How it is done: FIG. 7. Impact of VHHs binding on α2-AP-mediated plasmin inactivation. […] After 30 min of incubation, the residual activity of plasmin was measured by addition of 50 μl of the sample to 50 μl of a plasmin-specific fluorogenic substrate (400 μM). The plasmin activity in the wells in the absence of VHHs and α2AP was considered as 100% activity and relative residual plasmin activities calculated accordingly. The data are presented as mean±SD of three independent measurements.
After incubation for 30 min at 37° C., 50 μl of the mixture were transferred to the wells of black F16 Fluoronunc modules and 50 μl of plasmin-specific fluorogenic substrate (800 μM) were added and substrate hydrolysis measured at λex of 360 nm and λem of 460 nm. The plasmin activity in the reactions containing all reagents except α2-AP was set as 100%.

T1 sequence (P00747 97-580 limits assumed): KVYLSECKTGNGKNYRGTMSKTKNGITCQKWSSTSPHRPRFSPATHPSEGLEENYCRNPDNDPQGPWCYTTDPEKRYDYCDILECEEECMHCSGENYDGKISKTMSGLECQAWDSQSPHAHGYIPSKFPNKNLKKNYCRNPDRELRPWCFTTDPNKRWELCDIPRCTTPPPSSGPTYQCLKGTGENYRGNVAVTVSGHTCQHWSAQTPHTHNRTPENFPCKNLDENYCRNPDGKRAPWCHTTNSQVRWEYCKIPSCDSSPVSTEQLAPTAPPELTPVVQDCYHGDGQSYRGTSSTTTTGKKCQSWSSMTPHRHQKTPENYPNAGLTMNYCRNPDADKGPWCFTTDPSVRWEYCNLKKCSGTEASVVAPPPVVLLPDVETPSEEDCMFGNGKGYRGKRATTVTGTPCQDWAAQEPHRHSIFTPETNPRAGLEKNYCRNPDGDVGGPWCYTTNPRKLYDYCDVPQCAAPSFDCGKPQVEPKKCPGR
T1 sequence (P00747 581-810 limits assumed): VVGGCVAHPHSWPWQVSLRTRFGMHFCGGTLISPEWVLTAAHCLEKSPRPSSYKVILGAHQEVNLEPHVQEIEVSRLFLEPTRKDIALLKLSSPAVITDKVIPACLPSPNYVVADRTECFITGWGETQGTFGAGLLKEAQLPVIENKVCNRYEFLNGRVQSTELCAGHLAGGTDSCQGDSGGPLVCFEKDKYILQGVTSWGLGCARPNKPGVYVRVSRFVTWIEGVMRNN

B1: alpha2-antiplasmin (protein)
chain: NQEQVSPLTLLKLGNQEPGGQTALKSPPGVCSRDPTPEQTHRLARAMMAFTADLFSLVAQTSTCPNLILSPLSVALALSHLALGAQNHTLQRLQQVLHAGSGPCLPHLLSRLCQDLGPGAFRLAARMYLQKGFPIKEDFLEQSEQLFGAKPVSLTGKQEDDLANINQWVKEATEGKIQEFLSGLPEDTVLLLLNAIHFQGFWRNKFDPSLTQRDSFHLDEQFTVPVEMMQARTYPLRWFLLEQPEIQVAHFPFKNNMSFVVLVPTHFEWNVSQVLANLSWDTLHPPLVWERPTKVRLPKLYLKHQMDLVATLSQLGLQELFQAPDLRGISEQSLVVSGVQHQSTLELSEVGVEAAAATSIAMSRMSLSSFSVNRPFLFFIFEDTTGLPLFVGSVRNPNPSAPRELKEQQDSPGNKDFLQSLKGFPRGDKLFGPDLKLVPPMEEDYPQFGSPK
Molecule B1 yielded a residual plasmin activity of under 0.1%.
